According to the Human Domainome abundance scans (Beltran et al. 2025):
± gives the uncertainty stated by the source.

B1: Far upstream element-binding protein 2, residues 142 to 214; numbered along this chain, Q92945 (parent)
chain: RTSMTEEYRVPDGMVGLIIGRGGEQINKIQQDSGCKVQISPDSGGLPERSVSLTGAPESVQKAKMMLDDIVSR

Variants of: B1
Assay: abundance fitness (aPCA) (normalised: wild type 0, dead -1); higher = more abundant; growth selection in yeast, the domain comes from the species named
Settings: Homo sapiens

G44R and G44V are within error of each other in abundance fitness: -0.071 ± 0.04 for the first, -0.133 ± 0.045 for the second.

G20I and G20F are within error of each other in abundance fitness: -1.09 ± 0.18 for the first, -1.01 ± 0.14 for the second.

Going from G20P to G20Q, the abundance fitness rises from -0.576 ± 0.053 to -0.4 ± 0.061.

Going from G20S to G20W, the abundance fitness falls from -0.298 ± 0.043 to -0.96 ± 0.067.

Compared with P11Q, P11G is lower in abundance fitness: -0.221 ± 0.058 for the first, -0.472 ± 0.048 for the second.

Compared with P11W, P11I is higher in abundance fitness: -0.765 ± 0.069 for the first, -0.277 ± 0.1 for the second.

P11F and C35I are within error of each other in abundance fitness: -1.07 ± 0.16 for the first, -0.786 ± 0.16 for the second.

First: C35A
Second: C35K
The abundance fitness of the first is higher: -0.029 ± 0.046 for the first, -0.545 ± 0.071 for the second.

C35F and C35W are within error of each other in abundance fitness: -1.15 ± 0.18 for the first, -1.19 ± 0.069 for the second.

First: C35Q
Second: E58W
The abundance fitness of the first is lower: -0.791 ± 0.087 for the first, -0.335 ± 0.053 for the second.

E58Y and E58N are within error of each other in abundance fitness: -0.203 ± 0.1 for the first, -0.275 ± 0.11 for the second.

E58T and E58D are within error of each other in abundance fitness: -0.174 ± 0.055 for the first, -0.035 ± 0.088 for the second.

K36G and K36F are within error of each other in abundance fitness: -0.431 ± 0.043 for the first, -0.32 ± 0.081 for the second.

K36S and K36T are within error of each other in abundance fitness: -0.066 ± 0.048 for the first, 0.005 ± 0.056 for the second.

Compared with K36V, K64W is lower in abundance fitness: -0.001 ± 0.043 for the first, -0.662 ± 0.049 for the second.

K64V and K64C are within error of each other in abundance fitness: -0.465 ± 0.044 for the first, -0.554 ± 0.069 for the second.

R49A and R49Q are within error of each other in abundance fitness: -0.021 ± 0.057 for the first, -0.08 ± 0.057 for the second.

First: A63M
Second: A63Q
The abundance fitness of the first is lower: -1.24 ± 0.13 for the first, -0.654 ± 0.085 for the second.

A63R and A63N are within error of each other in abundance fitness: -0.865 ± 0.054 for the first, -0.661 ± 0.18 for the second.

A63S and A63D are within error of each other in abundance fitness: -0.782 ± 0.066 for the first, -0.666 ± 0.14 for the second.

First: P41W
Second: P41E
The abundance fitness of the first is lower: -0.299 ± 0.06 for the first, -0.04 ± 0.055 for the second.

Going from P41H to K28W, the abundance fitness falls from 0.035 ± 0.091 to -0.51 ± 0.051.

K28G and K28F are within error of each other in abundance fitness: -0.507 ± 0.039 for the first, -0.4 ± 0.11 for the second.

K28T and K28L are within error of each other in abundance fitness: -0.209 ± 0.064 for the first, -0.239 ± 0.044 for the second.

K28D and K28V are within error of each other in abundance fitness: -0.431 ± 0.083 for the first, -0.419 ± 0.046 for the second.

Compared with T5Q, T5Y is lower in abundance fitness: -0.117 ± 0.045 for the first, -0.248 ± 0.075 for the second.

T5V and T5R are within error of each other in abundance fitness: -0.154 ± 0.041 for the first, -0.168 ± 0.034 for the second.

Going from V15M to V15K, the abundance fitness falls from 0.035 ± 0.073 to -0.251 ± 0.085.

V15L and V15I are within error of each other in abundance fitness: 0.068 ± 0.05 for the first, -0.06 ± 0.079 for the second.

Going from V15C to V15A, the abundance fitness rises from -0.22 ± 0.077 to -0.053 ± 0.058.

M66Y and M66E are within error of each other in abundance fitness: -0.379 ± 0.086 for the first, -0.514 ± 0.056 for the second.

First: M66Q
Second: M66G
The abundance fitness of the first is higher: -0.301 ± 0.063 for the first, -0.652 ± 0.047 for the second.

M66I and I70A are within error of each other in abundance fitness: -0.254 ± 0.076 for the first, -0.295 ± 0.046 for the second.

First: I70W
Second: I70P
The abundance fitness of the first is higher: -0.319 ± 0.052 for the first, -0.555 ± 0.06 for the second.

Compared with I70C, D32M is higher in abundance fitness: -0.141 ± 0.067 for the first, 0.019 ± 0.066 for the second.

D32S and D32V are within error of each other in abundance fitness: -0.047 ± 0.055 for the first, -0.04 ± 0.052 for the second.

D32C and D32R are within error of each other in abundance fitness: -0.141 ± 0.082 for the first, -0.085 ± 0.042 for the second.

Compared with S72E, S72F is lower in abundance fitness: 0.007 ± 0.054 for the first, -0.176 ± 0.075 for the second.

S72C and S72Y are within error of each other in abundance fitness: -0.116 ± 0.067 for the first, -0.079 ± 0.074 for the second.

Going from S72G to Q61S, the abundance fitness falls from 0.118 ± 0.04 to -0.06 ± 0.051.

Q61K and Q61T are within error of each other in abundance fitness: 0.045 ± 0.062 for the first, -0.018 ± 0.053 for the second.

Q61M and Q61A are within error of each other in abundance fitness: -0.051 ± 0.064 for the first, 0.015 ± 0.048 for the second.
